Assay: label from the status in PepcDB records
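Also: failed if final PepcDB status was selected cloned or expressed and not failed if soluble or beyond.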

Row | Sequence | protein production
1 | MDDSMTSIKVHCLVSCFCEIIKRRSDIDFRPFYFGLWDGDFDITEGGIISYHSENINHDHYLLWYEKLYGMKVNEWYDHAKDKDSNVETFLQLVENKPENRYVIVMVDMSLLPERENKFHQKPFPHYLMISETEKEEEWFMLDPDFRWEGNMEREKVLYSVQDNPFGGGYFIDVEEIQEPTAEMVASYFIETFKRNDNELTMELKNLIIKMANEEEGYLLSGLVAAVKQIPVLAIRKYSYEHAFAYFRETLQYSEQEFDYWCDRVEDIVQGFTNVQYRAIKMAMTNNKGMLLSIVEKLDEMNAIELQIKTELERQFLSWKEMKSNESVLVF | failed
2 | MDDVLRRNPLFAALDDEQSAELRASMSEVTLARGDTLFHEGDPGDRLYVVTEGKVKLHRTSPDGRENMLAVVGPSELIGELSLFDPGPRTATGTALTEVKLLALGHGDLQPWLNVRPEVATALLRAVARRLRKTNDAMSDLVFSDVPGRVARALLDLSRRFGVQSEEGIHVVHDLTQEELAQLVGASRETVNKALADFAQRGWLRLEARAVILLDVERLAKRSR | failed
3 | MDEFDYVRRKLIERILHLTEKQPVVRPLPGLTVGRRESPTEPSTYILPPSICIAVQGAKRVLIGEEYYVYDVENFLLNSFDVPVVAQVIEASKEKPYIGMTWEIDMEILMEIVVEQKLNTRPITSSRGTSLGKVTHQLLDAFRRMLELLDEPEHISALLPVIKKEIIYRLLVSEQGPRL | failed
4 | MDEKLVKEVIFSFREVQRKTHHVLAEEAANREITTTQLLAIRELQKESDLTLGELAERMKLGKSTVSGIVDRLVKAGFLKRTRNESNRRALSLELTEKGATKAAETYHVFFNRLEPILEIGEERLKEMLEMHQEIITILEREGARD | failed
5 | MDEKRLKILEAAMEEFTEKGYQAASTNKICAKAGVSKGLIFHYFGSKEKLYIAAVSYAVDFATNEVSLEEKRWSDFVEMAIWSTKMKLDFNRKYPAIFGLIMQAYGNPPPELKGKLDGFFDKAIERSEAQMNQVLNEMQLKKDVNMDAARKVMEALFQHITEKSTVFLQRHPNATMEDFIPLANDFTEMMRIVEFGICEEKKDSGE | failed
6 | MDENSLIYGLELQARALTPQYGESNDVCFFIATNSLKPTNQVHLIQYEEEQGSVQSKVFEHALGEVWKLNSCPRNPRLLASVYNVQKGAQVLTKAALFTLPENLNPDPEQLKSEYLPWEQVEVLDTEALGERVKTIEFHPNQDTLACVVDNKVAVMQRAESSTRVVAEVPASGSSSGSAKHTQHFTSGKWSHHHQGHQFLTLQDGNLSAYDVRDTQHCAWSINDAHGQMVRDLDCNPNKQCHLVTGGDDGYLRIWDCRMPKAPVFERSDHSHWVWCVRFNTFHDQLILSSSSDCKVLLTCAGSVSSETQVQAGLDESNFSGADAEERHKLLPDGLLQTFDQHEDSVYCAEWSNVDPWIFASLSYDGRVIISKVPKQYKYQIIF | failed
7 | MDEQVIFTTNTSGTIASVHSFEQINLRQCSTQSRNSCVQVGNKYLFIAQAQKALINVYNLSGSFKRESVEQRLPLPEILKCLEVVENDGVQYDRIQGVNHNLPDFNLPYLLLGSTESGKLYIWELNSGILLNVKPMAHYQSITKIKSILNGKYIITSGNDSRVIIWQTVDLVSASNDDPKPLCILHDHTLPVTDFQVSSSQGKFLSCTDTKLFTVSQDATIRCYDLSLIGSKKKQKANENDVSIGKTPVLLATFTTPYSIKSIVLDPADRACYIGTAEGCFSLNLFYKLKGNAIVNLLQSAGVNTVQKGRVFSLVQRNSLTGGENEDLDALYAMGQLVCENVLNSNVSCLEISMDGTLLLIGDTEGKVSIAEIYSKQIIRTIQTLTTSQDSVGEVTNLLTNPYRLERGNLLFEGESKGKQPSNNNGHNFMKIPNLQRVIFDGKNKGHLHDIWYQIGEPEAETDPNLALPLNDFNAYLEQVKTQESIFSHIGKVSSNVKVIDNKIDATSSLDSNAAKDEEITELKTNIEALTHAYKELRDMHEKLYEEHQQMLDKQ | failed
8 | MDERPEGGDAQGAREGRDARGDGEPDEVVSGELLPYDDIAGVAAASVGLHALADDLAGERRELAVELRKFFVVLRLSVRRYAALRPYSPSSVSRYLSGDLVAPDHFVATLMDDVGRELGRPLSAQARGRVTGLQRAALRSSNSRAWKVQELEDRLAAAHQDAQVARTQADAVATLLHAERQRVAGVEEERQELARTLEAHQATSGAELDVLRAQQHRVRAERDTLRRRVADLEAALAAAEHRVAEAEQRCADLEHELLTADAAAAAEESAAAEQERARQQAELGSLRDEVARLRVAAERVPETSPARGTQAPRTSVHGAEADATGPVSGDRSAAAPADVPGAASSVTIVYAGFNRAWAAWIGDRLERWGVRAVLMLWDVPADIPLIDLLRDLKLAEGRILIVVSEWYFQLGLRSHDEWNEALREVVAPDPSRFVAVSVTNAPVPSAAAVLAAVDLTDTGADEAERRLLARLVGLPGDSLPAASGGERRGPRFPAATPEVWGGVPRRNTRFTGRESLLSDAYSLLKGAEPGAGVLTLHGMSGVGKTQLAVEYVYRFSSEYDVVWWVGADNRGVFRQTLAELASRLGLSTGAEYGERLRAVRDSLRRGDPYARWLLILDGADDPDQIEDLVPTGPGHVLITSRNLKWGEHNSELLEVPVYDRPESVAFIRRRAPRLAEADADRLAEALEDLPLLLDQTAGWLNDSDLSVGEYIALLDGGIDQDVVKVSADFPIAFRTAWSILLNKVRETVPEAVDLLRLCTFFAPGLIPVRFLREMPHNELPETITGLLNDRLLWNKAIHQLRQYSVVRLESHEAATDGSTSSGESLYLHRMVHQIVRNDMPEDERHEFAAVVRRALASADPGRPTDTRHWGEYAEIVPHLKYADVLDSPDPGVQRLVLNCLGYLHLSGRYAAGVELAERALEAWRELLGDTHPVIWELTAHHTNLLRSTGDYRRTEAVDRAAVEHLREERGELDPDHLRAAAGLAADLRGLGRYGEALELTRRLLTSCLDLLGEQDSRTLDAQHDLGFSLRLLGRYEEALDVDRRTLEARRALLSGRHPGILLSETSCATDLRLLGHYAEAESAQATNARAQRAVMGSDNPQTLRAEHNLALCQYRAGDREKAGKLFSRVLERYERTLGETDPLTLAAAVSQSCFAREYGDIDQAGAASESLIARYEAMLTDGHPFTIGARANHVLLLRQVGARDEARFGAEKALTAMAAAMGESHPWTLGCAINAAAVRQFIGDVESAAELSGSTVARATDALGRTHPLTLSARVAQAADLRGLREHRRAEEIEQEVLADLAATLGSRHVHTVSARSRNRPYWDFEPQPT | failed
9 | MDESCERVKAIYNEHEYLEAYSRHTDLRVDVDPKLAIGGMWEEIGKLQFEYLTKKGLQCHHELLDIGCGTLRGGRHFIKYLNSSNYYGVDISFKAIESAKELVVEEKLSDKKPQLLLDKNKSLNFNCYLGKTFDFIFAQSVFTHLKPEHISECFENIGQIMNEDSAFYFTYNNSVEYREVGFKNFYYPFDFFENLVERNGFKLKECKSEYAHPRGQIMVEIVKR | failed
10 | MDESVKSLMLPPPPPLLPPSQGYGSRKIDGDSITNKQIKKFWRQKQIIEEDHLYSAIKAAARVRARNLSDEDYKRFEESLDMEDLETEDHQGLKDWWTKSKYAYLNQPALGSADSLKRKRFSTYTPNCFSFKPCNPLYATSLNVF | failed
11 | MDETPIFKIKKLTIAENDRSEYIRYAEKNMHDSIPAEEGTLLIGSGHDDAHGEDNYEIEVFRNKGAEDLHIAGSHADDFVETVNKIATKQKVIDLHPEVITTKAQRALNSYADNFVMRLIKVEVKDADAEKFSHAVKKEMTTSMASEPGMEIMMSGTNIDNPNEWYFIEVYANDEAYDIHVKTPHYKEYIEETDGMVKSRDVKTLVRDTLATQGAIVLD | not failed
12 | MDFDLSEEQRLLKESVEGLLKGSYDFDSRKKYAKEKGGWSRAVWGKFAEQGLLGLPFSEEDGGFGAGAVETMIVMEALGHSLVLEPYLPTVVIGGGFLRRAGSAAQKAAHLPGIIDGSKTFAFAQLEKNSRWDLGDVSTTAKKSGDGWVIDGEKFVVLNGEAADTLIVTARTKGGQRDRTGVGVFLVPADAKGITRKGYPTQDGLHAADITFTGVQVGADAAIGDPENALELIEAVVDDARTALCAEAVGLMDESLTTTVEYIKTRKQFGVPIGSFQVLQHRAADMFVATEQARSMAMFATMAAEFDDAKERAGAIAAAKVQIGKSGKFVGQQSIQLHGGIGMTMEAKIGHYFKRLTMIEQTFGDTDHHLARVSAGGGLI | not failed

From a protein production outcome set (Wang et al. 2014)
